Test results as given in the supplement of paper PMC10065799, “High-throughput profiling of sequence recognition by tyrosine kinases and SH2 domains using bacterial peptide display” (eLife, 2023).
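Also: 11-residue human phosphosite peptides and single-mutation variants displayed on the E. coli surface, counted by deep sequencing, each peptide's frequency after selection divided by its frequency in the unselected input library; frequency after pTyr selection over input frequency; kinase dosed for 20-30% of maximal phosphorylation in three min.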

What follows are sequences tested against EPHB2 (UniProt P29323) (assay: phosphorylation enrichment, bacterial display (enrichment ratio); higher = better substrate or ligand; peptides without Tyr show the background).
Sequence of EPHB2 (P29323 whole entry, looked up): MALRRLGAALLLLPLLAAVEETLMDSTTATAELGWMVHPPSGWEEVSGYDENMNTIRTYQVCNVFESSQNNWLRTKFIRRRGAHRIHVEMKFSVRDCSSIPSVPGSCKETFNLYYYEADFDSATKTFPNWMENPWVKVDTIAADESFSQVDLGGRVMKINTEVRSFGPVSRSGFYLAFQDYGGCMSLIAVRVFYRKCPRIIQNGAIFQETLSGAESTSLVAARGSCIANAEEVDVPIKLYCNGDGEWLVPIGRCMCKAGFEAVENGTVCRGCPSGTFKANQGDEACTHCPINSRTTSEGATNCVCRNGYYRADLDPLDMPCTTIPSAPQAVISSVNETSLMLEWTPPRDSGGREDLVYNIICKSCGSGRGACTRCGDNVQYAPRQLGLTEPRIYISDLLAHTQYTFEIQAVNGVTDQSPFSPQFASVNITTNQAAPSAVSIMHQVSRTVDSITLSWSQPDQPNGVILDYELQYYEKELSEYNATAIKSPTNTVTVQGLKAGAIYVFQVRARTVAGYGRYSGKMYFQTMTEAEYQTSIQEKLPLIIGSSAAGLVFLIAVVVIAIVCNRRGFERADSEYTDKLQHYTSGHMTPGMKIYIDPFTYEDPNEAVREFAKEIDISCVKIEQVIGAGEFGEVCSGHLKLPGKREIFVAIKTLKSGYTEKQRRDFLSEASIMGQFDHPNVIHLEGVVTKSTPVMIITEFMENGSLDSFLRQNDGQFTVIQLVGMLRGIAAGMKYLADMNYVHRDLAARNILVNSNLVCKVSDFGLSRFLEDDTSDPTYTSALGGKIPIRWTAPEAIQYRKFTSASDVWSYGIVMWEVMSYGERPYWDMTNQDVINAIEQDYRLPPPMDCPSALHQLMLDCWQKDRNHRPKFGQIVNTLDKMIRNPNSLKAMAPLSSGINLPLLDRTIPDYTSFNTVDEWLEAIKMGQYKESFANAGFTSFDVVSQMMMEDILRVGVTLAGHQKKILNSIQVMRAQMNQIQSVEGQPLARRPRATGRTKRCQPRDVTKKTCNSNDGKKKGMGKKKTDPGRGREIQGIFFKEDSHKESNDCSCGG
With EAEPFYCSLRD [NPHS1_Y1139_R1140C_YF] the phosphorylation enrichment was 1.27. Sequence HQKKPYCHAHN [NRAP_Y53] has a phosphorylation enrichment of 0.8. LTERDYSFVTT [ACTG2_Y199_G198D] was tested, and the phosphorylation enrichment was 3.51. Work on LAVPLYKNGVK [CPS1_Y1069] yielded a phosphorylation enrichment of 1.67. Work on YSNKLHYQLEQ [PDPR_Y109_Y109H] yielded a phosphorylation enrichment of 0.439. Work on SVMAEYGLFGA [VSX2_Y219_YF] yielded a phosphorylation enrichment of 0.596. ADDSFYTARSA [ZAP70_Y493_YF] showed a phosphorylation enrichment of 0.534. Sequence INNIDYYKKTT [FGFR2_Y656] has a phosphorylation enrichment of 0.506. EWQQIYTFDSG [JUP_Y20_T19I_YF] gave a phosphorylation enrichment of 0.906. TRSYDYMEGED [FGF7_Y58_G62E] gave a phosphorylation enrichment of 0.634. CTTIHYNFMCH [TP53_Y234_N239H_YF] showed a phosphorylation enrichment of 0.547. VDHFGYNKDDK [APOB_Y740_T741N] gave a phosphorylation enrichment of 0.528. In the case of VATRWYRSLEL [CDKL5_Y177_P180L], the phosphorylation enrichment is reported as 0.368. HFGCVYRGTLL [MET_Y1093_H1094R] was tested, and the phosphorylation enrichment was 0.87. PEIIAYQPFGK [PRKCG_Y529_YF] was tested, and the phosphorylation enrichment was 0.645. For RAILNYIASKF [GSTA3_Y74_YF], the phosphorylation enrichment was 0.86. For VRSTEYPCAGL, the phosphorylation enrichment was 0.483. TKDTFYQQPMF [GBA_Y451_K452Q] gave a phosphorylation enrichment of 2.01. KEIHAYRKLLE [LMNA_Y376_M371K] gave a phosphorylation enrichment of 0.481. APGNAYGDAGY [SYP_Y250_D248N] was tested, and the phosphorylation enrichment was 0.451. Work on PFGQWYESHFA [RPS8_Y113_R110G_YF] yielded a phosphorylation enrichment of 4.94. Sequence FQEKSYIKGTS [LCTL_Y331_L326F] has a phosphorylation enrichment of 0.531. With NHRNQYQALKT [CLSPN_Y887_P892T] the phosphorylation enrichment was 0.43. With EFNLMYHGTKE [IRF6_Y97_D98H] the phosphorylation enrichment was 0.645. Work on VVSLFYGTALF [OR10C1_Y251_M246V] yielded a phosphorylation enrichment of 0.812. VRFMADTDETF [F8_Y450_Y450D] gave a phosphorylation enrichment of 0.644. Sequence VQNIVYRTASI [CYP39A1_Y102] has a phosphorylation enrichment of 0.396. For SSWKLYPRMLR [HAO1_Y50_R46S], the phosphorylation enrichment was 0.463. KVALVYGQMNQ [ATP5F1B_Y269_E274Q] showed a phosphorylation enrichment of 0.641. For AGREIYESEKC [TTN_Y4424_D4427E], the phosphorylation enrichment was 0.585. Work on TYQYKYPEGSS [TGM4_Y440_E437Q] yielded a phosphorylation enrichment of 0.56. Sequence TENAGYFFQVS has a phosphorylation enrichment of 0.546. In the case of ASRKFYAMKIL [AKT3_Y174_G171R_YF], the phosphorylation enrichment is reported as 0.428.

The sequences below were run on c-Src in the same assay as above.
With EAEPFYCSLRD [NPHS1_Y1139_R1140C_YF] the phosphorylation enrichment was 2.86. HQKKPYCHAHN [NRAP_Y53] gave a phosphorylation enrichment of 0.591. Sequence LTERDYSFVTT [ACTG2_Y199_G198D] has a phosphorylation enrichment of 0.977. For LAVPLYKNGVK [CPS1_Y1069], the phosphorylation enrichment was 0.416. Sequence YSNKLHYQLEQ [PDPR_Y109_Y109H] has a phosphorylation enrichment of 0.553. SVMAEYGLFGA [VSX2_Y219_YF] was tested, and the phosphorylation enrichment was 6.17. For ADDSFYTARSA [ZAP70_Y493_YF], the phosphorylation enrichment was 0.707. Sequence INNIDYYKKTT [FGFR2_Y656] has a phosphorylation enrichment of 0.426. For EWQQIYTFDSG [JUP_Y20_T19I_YF], the phosphorylation enrichment was 9.4. Work on TRSYDYMEGED [FGF7_Y58_G62E] yielded a phosphorylation enrichment of 0.574. CTTIHYNFMCH [TP53_Y234_N239H_YF] showed a phosphorylation enrichment of 0.471. With VDHFGYNKDDK [APOB_Y740_T741N] the phosphorylation enrichment was 0.485. Work on VATRWYRSLEL [CDKL5_Y177_P180L] yielded a phosphorylation enrichment of 0.314. With HFGCVYRGTLL [MET_Y1093_H1094R] the phosphorylation enrichment was 1.97. For PEIIAYQPFGK [PRKCG_Y529_YF], the phosphorylation enrichment was 1.07. RAILNYIASKF [GSTA3_Y74_YF] gave a phosphorylation enrichment of 1. VRSTEYPCAGL gave a phosphorylation enrichment of 0.471. TKDTFYQQPMF [GBA_Y451_K452Q] showed a phosphorylation enrichment of 0.639. KEIHAYRKLLE [LMNA_Y376_M371K] was tested, and the phosphorylation enrichment was 0.506. In the case of APGNAYGDAGY [SYP_Y250_D248N], the phosphorylation enrichment is reported as 0.497. PFGQWYESHFA [RPS8_Y113_R110G_YF] showed a phosphorylation enrichment of 4.21. FQEKSYIKGTS [LCTL_Y331_L326F] showed a phosphorylation enrichment of 0.457. Sequence NHRNQYQALKT [CLSPN_Y887_P892T] has a phosphorylation enrichment of 0.364. For EFNLMYHGTKE [IRF6_Y97_D98H], the phosphorylation enrichment was 0.545. For VVSLFYGTALF [OR10C1_Y251_M246V], the phosphorylation enrichment was 1.97. For VRFMADTDETF [F8_Y450_Y450D], the phosphorylation enrichment was 0.471. Work on VQNIVYRTASI [CYP39A1_Y102] yielded a phosphorylation enrichment of 0.356. With SSWKLYPRMLR [HAO1_Y50_R46S] the phosphorylation enrichment was 0.366. Work on KVALVYGQMNQ [ATP5F1B_Y269_E274Q] yielded a phosphorylation enrichment of 3.17. For AGREIYESEKC [TTN_Y4424_D4427E], the phosphorylation enrichment was 0.59. With TYQYKYPEGSS [TGM4_Y440_E437Q] the phosphorylation enrichment was 0.494. Work on TENAGYFFQVS yielded a phosphorylation enrichment of 0.384. ASRKFYAMKIL [AKT3_Y174_G171R_YF] showed a phosphorylation enrichment of 0.464.
